Laboratory results published in article PMC9340783, “Development of a fully human anti‐GITR antibody with potent antitumor activity using H2L2 mice” (FEBS Open Bio, 2022).

T1: cynoGITR on 293F‐cynoGITR cells (Macaca fascicularis)
T1 construct: also called 293F‐cGITR
T1 chain: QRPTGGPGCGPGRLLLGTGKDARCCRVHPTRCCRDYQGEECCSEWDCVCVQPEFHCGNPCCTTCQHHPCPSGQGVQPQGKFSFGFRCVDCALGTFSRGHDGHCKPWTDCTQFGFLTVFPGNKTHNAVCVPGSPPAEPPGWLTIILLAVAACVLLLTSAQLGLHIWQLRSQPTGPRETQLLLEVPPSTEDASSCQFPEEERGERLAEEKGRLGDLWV

T2: cynoGITR ECD hFc (Macaca fascicularis)
T2 construct: cynomolgus GITR, extracellular domain, Gln20-Glu155, NCBI XP_005545180.1; also called cynoGITR protein; cGITR; source: FreeStyle 293F, transiently transfected, purified by protein A
T2 chain: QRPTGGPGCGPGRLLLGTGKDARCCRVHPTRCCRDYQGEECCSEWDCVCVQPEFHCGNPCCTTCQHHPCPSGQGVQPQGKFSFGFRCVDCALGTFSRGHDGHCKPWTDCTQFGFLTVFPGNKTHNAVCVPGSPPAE


Columns and labels:
[1] = target: T3, human GITR on 293F‐hGITR cells (Homo sapiens (Human)., UniProt Q9Y5U5-1); test: cell-based or functional assay
[2] = target: T3, human GITR on 293F‐hGITR cells; test: flow cytometry on cells; 293F‐hGITR or 293F‐cynoGITR cells incubated with antibodies at 4 °C for 1 h, fluorescent anti-rat/human secondary antibody; EC50 of MFI curve; conditions: one partner purified
[3] = target: T1, cynoGITR on 293F‐cynoGITR cells; test: as above; conditions: one partner purified
hGITR ECD hFc [4] = target: T4, hGITR ECD hFc (Homo sapiens (Human)., UniProt Q9Y5U5, Thr45Ala); test: SPR; Biacore T200; hGITR ECD hFc immobilised on a Series S CM5 chip; antibody 0, 3.125, 6.25, 12.5, 25 and 50 nM; association 180 s, dissociation 600 s; conditions: both partners purified
T4 construct: human GITR (glucocorticoid-induced TNF receptor-related), extracellular domain, Gln26-Glu161 with Thr45Ala, UniProt Q9Y5U5.1; also called human GITR protein; source: FreeStyle 293F, transiently transfected, purified by protein A

hGITR ECD hFc [5] = target: T4, hGITR ECD hFc; test: ELISA; indirect ELISA; antigen hFc fusion protein coated on 96-well plates (1 μg·mL^−1 overnight at 4 °C in Fig. 3B), antibody added, detected with anti-rat IgG/hIgG-peroxidase antibody; conditions: both partners purified
cynoGITR ECD hFc = target: T2, cynoGITR ECD hFc; test: as above; conditions: both partners purified

T3 sequence (Q9Y5U5 26-241): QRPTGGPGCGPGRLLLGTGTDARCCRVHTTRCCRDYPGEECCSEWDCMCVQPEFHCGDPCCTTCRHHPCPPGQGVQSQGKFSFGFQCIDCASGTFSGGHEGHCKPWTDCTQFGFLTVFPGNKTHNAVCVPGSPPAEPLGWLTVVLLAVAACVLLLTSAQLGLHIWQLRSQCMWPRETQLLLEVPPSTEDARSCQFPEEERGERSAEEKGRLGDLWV

Binder	NF‐ĸB luciferase reporter assay, Crosslinking, EC50 [1]	NF‐ĸB luciferase reporter assay, Crosslinking, Top ratio [1]	NF‐ĸB luciferase reporter assay, No crosslinking, EC50 [1]	NF‐ĸB luciferase reporter assay, No crosslinking, Top ratio [1]	EC50 [2]	EC50 [3]	Kd (hGITR ECD hFc [4])	EC50 (hGITR ECD hFc [5])	EC50 (cynoGITR ECD hFc)
hab076 (antibody, V domains shown, 3503‐hab076‐VH; 3503‐hab076‐Vk; Whole antibody, human IgG1 heavy chain constant region, human kappa light chain constant region; source: FreeStyle 293F, transiently co-transfected, purified from culture supernatant) VH: QVQLVESGGGVVQPGRSLRLSCAASGFTFSSYGMHWVRQAPGKGLEWVAVIWYETSNKYYADSVKGRFTISRDNSKNTLYLQMNSLRAEDTAVYYCARYGASSGWYWYFDLWGRGTLVTVSS VL: DIQLTQSPSFLSASVGDRVTITCRASQGISSYLAWYQQKPGKAPKLLIYAASTLQSGVPSRFSGSGSGTEFTLTISSLQPEDFATYCCQQLNSYPFTFGQGTKLEIK	6.07 nM	20 fold	0.157 nM	9 fold	0.179 nM	0.418 nM	1.03 nM	0.091 nM	0.101 nM
hab064e1 (antibody, V domains shown, 3503‐hab064‐VH(N2S); the substitution is against the VH of m13; position not given; 3503‐hab064‐Vk(T2K/C2Y); the substitutions are against the VL of m13; positions not given; Whole antibody, human IgG1 heavy chain constant region, human kappa light chain constant region; source: FreeStyle 293F, transiently co-transfected, purified from culture supernatant) VH: QVQLVESGGGVVQPGRSLRLSCAASGFTFSSYGMHWVRQAPGKGLEWVAVIWYETSNKYYADSVKGRFTISRDNSKNTLYLQMNSLRAEDTAVYYCARYGGNSGWYWYFDLWGRGTLVTVSS VL: DIQLTQSPSFLSASVGDRVTITCRASQGISSFLAWYQQKPGKAPKLLIYAASTLQSGVPSRFSGSGSGTEFTLTISSLQPEDFATYYCQQLNSYPFTFGQGTKLEIK	9.26 nM	12 fold	0.264 nM	11 fold	0.235 nM	0.313 nM		0.093 nM	0.096 nM
mAb019 (antibody, V domains shown, as the VH of m12 (hab019 was made from the variable regions of mAb019); as the VL of m12; Human-murine chimeric antibody from H2L2 mice: human variable regions, rat constant regions; source: hybridoma cell culture supernatant, purified (Protein A)) VH: QVQLVESGGGVVQPGRSLRLSCAASGFTFSSYGMHWVRQAPGKGLEWVAVIWYAGSRKFYADSVEGRFTISRDNSKNTLYLQMSSVRPEDTAVYYCARGGSLDGGFFYYGMDVWGQGTTVTVSS VL: not shown	12.5 nM	11 fold		20 fold	0.163 nM	0.011 nM		0.008 nM	0.007 nM
hab019e3 (antibody, V domains shown, 3503‐hab019‐VH(DA + NLA); positions not given; as the VL of m12 (3503‐hab019‐Vk); Whole antibody, human IgG1 heavy chain constant region, human kappa light chain constant region; source: FreeStyle 293F, transiently co-transfected, purified from culture supernatant) VH: QVQLVESGGGVVQPGRSLRLSCAASGFTFSSYGMHWVRQAPGKGLEWVAVIWYAGSRKFYADSVEGRFTISRDNSKNTLYLQMNSLRAEDTAVYYCARGGSLDAGFFYYGMDVWGQGTTVTVSS VL: not shown	8.75 nM	14 fold	0.269 nM	9 fold	0.215 nM	0.277 nM		0.098 nM	0.089 nM
hab019e1 (antibody, V domains shown, 3503‐hab019‐VH(DG + NLA); positions not given; as the VL of m12 (3503‐hab019‐Vk); Whole antibody, human IgG1 heavy chain constant region, human kappa light chain constant region; source: FreeStyle 293F, transiently co-transfected, purified from culture supernatant) VH: QVQLVESGGGVVQPGRSLRLSCAASGFTFSSYGMHWVRQAPGKGLEWVAVIWYAGSRKFYADSVEGRFTISRDNSKNTLYLQMNSLRAEDTAVYYCARGGSLDGGFFYYGMDVWGQGTTVTVSS VL: not shown	9.46 nM	12 fold	0.26 nM	8 fold	0.181 nM	0.287 nM		0.082 nM	0.079 nM
hab019 (antibody, V domains shown, 3503‐hab019‐VH; 3503‐hab019‐Vk; Whole antibody, human IgG1 heavy chain constant region, human kappa light chain constant region; source: FreeStyle 293F, transiently co-transfected, purified from culture supernatant) VH: QVQLVESGGGVVQPGRSLRLSCAASGFTFSSYGMHWVRQAPGKGLEWVAVIWYAGSRKFYADSVEGRFTISRDNSKNTLYLQMSSVRPEDTAVYYCARGGSLDGGFFYYGMDVWGQGTTVTVSS VL: not shown	8.66 nM	13 fold	0.265 nM	10 fold	0.244 nM	0.304 nM	0.401 nM	0.103 nM	0.092 nM
